Results taken from patent US20050282743A1, “Molecular interactions in cells” (Arbor Vita Corporation, priority 2001, published 2005).
Where a name gives a salt, the structure may show the parent alone. Blank lines part the entries; values can stand above or below the molecule they belong to. Ends that are not written are not given here. * marks the point of attachment. Biotin = O=C1N[C@H]2[C@H](CS[C@H]2CCCCC(=O)*)N1

Legend:
[1] = system: Mouse T cell lines stimulated with anti-mouse CD3; assay: T cell stimulation assay, anti-mouse CD3, IFNγ ELISA (FIG. 1B); assay type: cell-based; conditions: 10 μM Tat-peptide; compared to Tat-peptide alone
Experimental: Cell Cultures Cells were maintained and tested in RPMI 1640 media supplemented with 10% fetal calf serum (HyClone), 2 mM glutamine, 10 mM Hepes, 100 U/ml penicillin, 100 μg/ml streptomycin, 0.1 mM non-essential amino acids, 1 mM sodium pyruvate, and 50 μM beta mercaptoethanol.
Supernatants were assayed for cytokine production following activation of T cell lines. Mouse T cell lines were stimulated using two different methods, either with antigen and antigen presenting cells or anti-mouse CD3.
Antibody against mouse CD3 (Pharmigen #145-2C11) was coated overnight at 4° C. using 96-well flat bottom Elisa plates at a final concentration of 0.5 μg/ml, diluted in PBS. Just prior to use, plates were washed three times with 200 μl/well PBS to remove excess anti-CD3. […]
IFNγ was measured from cell supernatants, described above, at ambient temperature using the Endogen, Inc. ELISA protocol 3. […] The presence of IFNγ was detected with a biotin-labeled anti-mouse IFNγ monoclonal antibody (MM700B, Endogen, Inc.,). […] The absorbance at 450 nm was measured using a microtiter plate reader (Thermo Max, Molecular Devices) and the concentration of unknown IFNγ from cell supernatants was calculated from a standard curve generated by Softmax Pro software (Molecular Devices).

[2] = system: hSyntenin : Presenilin (115L); assay: G assay with FDA approved drug (Example 7, TABLE 10A); assay type: binding; conditions: OD in absence of drug 1.1; drug concentration per TABLE 11; read after 30 minutes
Experimental: For certain of the PDZ proteins and PL proteins shown to bind together and for which Kd values had been obtained, additional testing was conducted to determine whether certain pharmaceutical compounds would act to antagonize or agonize the interactions. Assays were conducted as for the G′ assay described supra both in the presence and absence of test compound, except that 50 ul of a 10 uM solution of the biotinylated PL peptide is allowed to react with the surface bearing the PDZ-domain polypeptide instead of a 20 uM solution as specified in step (2) of the assay.
In both tables, the first column (left to right) entitled “PDZ domain” lists the gene name of GST-PDZ domain fusion (see TABLE 9). Entries having two numbers separated by a slash indicate which PDZ domain was utilized. For example, in TABLE 10A, the entry for ZO-3 is 1/3. This means that PDZ domain 1 of 3 was used.
The second column labeled “PL” indicates the name of the PDZ ligand (see TABLES 10A and 10B) interacting with the PDZ domain. The third column entitled “Drug” lists the common or trade name of pharmaceutical compound tested and found to modulate the specific PDZ-PL interaction (suppliers and chemical information are listed in TABLE 11). The final column with the heading “Change in OD” indicates the change in absorbance at 450 nm of the assay in the absence (first number) or presence (second number) of chemical compound.
Many FDA approved drugs have unknown mechanism of function. It is quite possible that some of these drugs function by disrupting or increasing PDZ/PL interactions. This possibility was examined by using the ‘G Assay’ (Example 3 section D). FDA approved drugs were incubated in the presence of the labeled peptide and compared to the same interaction without drug to determine if there was an effect on specific PDZ:PL interactions (drugs added with peptide at step 9 in Example 3D). The primary focus of this experiment was on drugs involved in treatment of depression (amitriptyline, desipramine, trimipramine, benztropine, and nortryptilline) and epilepsy (valproic acid). No modes of action are known for these drugs.
Therapeutic dose was determined by guidelines given in the Physician's Desk Reference and in the assay, 200 times this amount was used. If a dosage range was given, the upper end of the range was used. Each interaction listed in TABLES 10A & B was tested in the ‘G Assay’ (see Example 3) against each of the drugs listed in TABLE 11. The concentration of GST-fusion protein and peptide used in the assay represent the Kd and were determined by titration. These values can be found in TABLE 7. The drugs were added to the peptide before addition to the well containing the PDZ protein. Otherwise, the assay was carried out as described and read at 450 nm after 30 minutes of developing. For the sequences of the PDZs and PLs used in these tests, see TABLES 8 & 9.
List of interactions and therapeutics for which a modulation of binding was observed. Concentrations at which the GST-PDZ fusion protein and labeled peptide were used can be found in Table 7 or Table 12.

[3] = system: PDZ protein (GST-PDZ fusion); assay: G' assay (10 uM PL peptide), results of TABLE 7 and TABLE 12; assay type: binding
How it was run: (§1)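 Biotinylated PL peptides at 10 uM (vs 20 uM in G^0 assay) bound to GST-PDZ fusions; PDZ protein at 5 ug/ml unless another concentration listed. Bound peptide read as A450 nm, classified 0–5 (0 = A450 0; 5 = A450 >4 repeated).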

[4] = target: T1, PDZ protein (GST-PDZ fusion) (Homo sapiens, UniProt Q6P0Q8); assay: as above; assay type: binding; conditions: PDZ KIAA807
T1 construct: made in house; host or cells: E. coli (DH5alpha, BL21 or JM109)
How it was run: as §1

[5] = target: T2, PDZ protein (GST-PDZ fusion) (Homo sapiens, UniProt O14907); assay: as above; assay type: binding; conditions: PDZ TIP1, PDZ Domain 1
T2 construct: made in house; host or cells: E. coli (DH5alpha, BL21 or JM109)
T2 sequence (O14907 1-124): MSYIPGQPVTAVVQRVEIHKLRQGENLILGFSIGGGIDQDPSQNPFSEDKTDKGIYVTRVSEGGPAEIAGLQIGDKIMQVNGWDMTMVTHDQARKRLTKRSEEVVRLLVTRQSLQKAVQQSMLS
How it was run: as §1

[6] = target: T3, PDZ protein (GST-PDZ fusion) (Homo sapiens, UniProt O15021); assay: as above; assay type: binding; conditions: PDZ KIAA0303, PDZ Domain 1
T3 construct: made in house; host or cells: E. coli (DH5alpha, BL21 or JM109)
How it was run: as §1

[7] = target: T4, PDZ protein (GST-PDZ fusion) (Homo sapiens, UniProt P78352); assay: as above; assay type: binding; conditions: PDZ PSD95, PDZ Domain 1, 2, 3
T4 construct: made in house; host or cells: E. coli (DH5alpha, BL21 or JM109)
How it was run: as §1

[8] = target: T5, PDZ protein (GST-PDZ fusion) (Homo sapiens, UniProt Q5TCQ9); assay: as above; assay type: binding; conditions: PDZ KIAA1634, PDZ Domain 2
T5 construct: made in house; host or cells: E. coli (DH5alpha, BL21 or JM109)
T5 sequence (Q5TCQ9 1-1481): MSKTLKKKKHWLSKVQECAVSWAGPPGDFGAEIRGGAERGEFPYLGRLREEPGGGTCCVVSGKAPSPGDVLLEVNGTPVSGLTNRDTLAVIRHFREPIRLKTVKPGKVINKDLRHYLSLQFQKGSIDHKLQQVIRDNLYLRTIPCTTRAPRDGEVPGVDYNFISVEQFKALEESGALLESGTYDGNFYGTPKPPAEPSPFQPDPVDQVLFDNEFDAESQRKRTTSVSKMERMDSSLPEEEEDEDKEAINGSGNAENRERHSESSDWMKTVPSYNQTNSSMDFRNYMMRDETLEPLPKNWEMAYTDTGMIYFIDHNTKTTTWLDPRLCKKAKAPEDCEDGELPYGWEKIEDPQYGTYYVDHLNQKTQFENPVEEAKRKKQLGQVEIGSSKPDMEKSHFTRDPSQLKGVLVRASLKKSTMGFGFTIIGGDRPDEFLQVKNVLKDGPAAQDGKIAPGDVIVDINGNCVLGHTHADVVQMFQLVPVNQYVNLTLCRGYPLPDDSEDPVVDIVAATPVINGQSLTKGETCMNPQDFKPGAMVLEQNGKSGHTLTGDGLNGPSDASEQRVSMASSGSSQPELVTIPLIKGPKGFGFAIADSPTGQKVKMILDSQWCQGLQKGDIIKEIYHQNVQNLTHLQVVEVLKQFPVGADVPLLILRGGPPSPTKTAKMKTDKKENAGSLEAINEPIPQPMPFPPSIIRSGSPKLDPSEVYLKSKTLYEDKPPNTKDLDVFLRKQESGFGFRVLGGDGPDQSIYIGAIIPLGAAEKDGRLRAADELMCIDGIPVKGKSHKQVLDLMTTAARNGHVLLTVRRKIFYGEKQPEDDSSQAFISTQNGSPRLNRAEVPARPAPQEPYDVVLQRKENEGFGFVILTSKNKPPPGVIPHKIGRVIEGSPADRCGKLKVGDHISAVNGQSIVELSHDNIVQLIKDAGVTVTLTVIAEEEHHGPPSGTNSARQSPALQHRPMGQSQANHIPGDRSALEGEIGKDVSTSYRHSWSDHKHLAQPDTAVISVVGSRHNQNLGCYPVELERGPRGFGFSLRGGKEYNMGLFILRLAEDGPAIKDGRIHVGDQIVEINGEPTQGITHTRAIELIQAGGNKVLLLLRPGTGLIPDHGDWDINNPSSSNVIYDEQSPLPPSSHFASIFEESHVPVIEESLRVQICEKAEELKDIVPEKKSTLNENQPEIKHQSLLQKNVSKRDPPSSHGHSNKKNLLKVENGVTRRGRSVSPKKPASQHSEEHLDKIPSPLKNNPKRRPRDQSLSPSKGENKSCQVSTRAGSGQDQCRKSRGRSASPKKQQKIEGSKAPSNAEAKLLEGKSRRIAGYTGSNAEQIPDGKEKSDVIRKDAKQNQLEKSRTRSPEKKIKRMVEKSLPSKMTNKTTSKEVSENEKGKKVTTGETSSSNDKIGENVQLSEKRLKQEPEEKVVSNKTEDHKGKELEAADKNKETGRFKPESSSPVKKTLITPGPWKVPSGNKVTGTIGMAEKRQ
How it was run: as §1

[9] = target: T6, PDZ protein (GST-PDZ fusion) (Homo sapiens, UniProt Q12923); assay: as above; assay type: binding; conditions: PDZ PTPL-1, PDZ Domain 2
T6 construct: made in house; host or cells: E. coli (DH5alpha, BL21 or JM109)
How it was run: as §1

[10] = target: T7, NeDLG (PDZ Domain 1, 2) (Homo sapiens, UniProt Q92796); assay: G' assay, TABLE 12; assay type: binding; conditions: A450 nm class of biotinylated PL peptide bound; 0 in conc columns = peptide 10 uM, protein 5 ug/ml
T7 construct: When more than one PDZ domain was cloned, the DNA portion cloned represents the PDZ domains and the cDNA portion located between individual domains; made in house; host or cells: E. coli (DH5alpha, BL21 or JM109)
T7 sequence (Q92796 129-315 limits assumed): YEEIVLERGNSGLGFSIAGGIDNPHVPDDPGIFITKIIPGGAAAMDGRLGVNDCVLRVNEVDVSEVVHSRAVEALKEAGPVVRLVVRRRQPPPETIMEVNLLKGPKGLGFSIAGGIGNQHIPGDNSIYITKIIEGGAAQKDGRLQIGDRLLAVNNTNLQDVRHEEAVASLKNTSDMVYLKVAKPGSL
Experimental: (§2) The third column labeled “Peptide Optimal Concentration” in the tables is a number reflective of the binding interaction between the PL protein and PDZ protein. […] The column labeled “Protein Optimal Concentration” refers to the protein concentration used to assay PL interaction (in ug/ml); a ‘0’ is indicative of 5 ug/ml protein concentration; any other value represents the concentration (in ug/ml) used to determine the dissociation constant for a given interaction.
(§3) Finally, the seventh column labeled “Classification” is another measure of the level of binding. In particular, it provides an absorbance value at 450 nm which indicates the amount of PL peptide bound to the PDZ protein. The following numerical values have the following meanings: ‘1’—A450 nm 0-1; ‘2’—A450 nm 1-2; ‘3’—A450 nm 2-3; ‘4’—A450 nm 3-4; ‘5’—A450 nm of 4 more than 2× repeated; ‘0’—A450 nm 0, i.e., not found to interact. Thus, higher numbers indicate stronger interactions.
(§4) For convenience, the assay conditions described in this section are referred to as the “G′ assay” and the “G″ assay,” with the specific conditions described in the preceding section on G assays being referred to as the “G^0 assay.” The “G′ assay” is identical to the “G^0 assay” except at step (2) the peptide concentration is 10 uM instead of 20 uM. […] Correspondingly, it slightly increases the certainty that detected interactions are of sufficient affinity and half-life to be of biological importance and useful therapeutic targets.

[11] = target: T8, PSD95 (PDZ Domain 1, 2, 3) (Homo sapiens, UniProt P78352); assay: G' assay, TABLE 12; assay type: binding; conditions: A450 nm class of biotinylated PL peptide bound; 0 in conc columns = peptide 10 uM, protein 5 ug/ml
T8 construct: When more than one PDZ domain was cloned, the DNA portion cloned represents the PDZ domains and the cDNA portion located between individual domains; made in house; host or cells: E. coli (DH5alpha, BL21 or JM109)
Experimental: as §2, §3, §4

[12] = target: T9, DLG1 (PDZ Domain 1, 2) (Homo sapiens, UniProt Q12959); assay: G' assay, TABLE 12; assay type: binding; conditions: A450 nm class of biotinylated PL peptide bound; 0 in conc columns = peptide 10 uM, protein 5 ug/ml
T9 construct: made in house; host or cells: E. coli (DH5alpha, BL21 or JM109)
Experimental: as §2, §3, §4

T3 sequence (O15021 whole entry, the tested form may be a part): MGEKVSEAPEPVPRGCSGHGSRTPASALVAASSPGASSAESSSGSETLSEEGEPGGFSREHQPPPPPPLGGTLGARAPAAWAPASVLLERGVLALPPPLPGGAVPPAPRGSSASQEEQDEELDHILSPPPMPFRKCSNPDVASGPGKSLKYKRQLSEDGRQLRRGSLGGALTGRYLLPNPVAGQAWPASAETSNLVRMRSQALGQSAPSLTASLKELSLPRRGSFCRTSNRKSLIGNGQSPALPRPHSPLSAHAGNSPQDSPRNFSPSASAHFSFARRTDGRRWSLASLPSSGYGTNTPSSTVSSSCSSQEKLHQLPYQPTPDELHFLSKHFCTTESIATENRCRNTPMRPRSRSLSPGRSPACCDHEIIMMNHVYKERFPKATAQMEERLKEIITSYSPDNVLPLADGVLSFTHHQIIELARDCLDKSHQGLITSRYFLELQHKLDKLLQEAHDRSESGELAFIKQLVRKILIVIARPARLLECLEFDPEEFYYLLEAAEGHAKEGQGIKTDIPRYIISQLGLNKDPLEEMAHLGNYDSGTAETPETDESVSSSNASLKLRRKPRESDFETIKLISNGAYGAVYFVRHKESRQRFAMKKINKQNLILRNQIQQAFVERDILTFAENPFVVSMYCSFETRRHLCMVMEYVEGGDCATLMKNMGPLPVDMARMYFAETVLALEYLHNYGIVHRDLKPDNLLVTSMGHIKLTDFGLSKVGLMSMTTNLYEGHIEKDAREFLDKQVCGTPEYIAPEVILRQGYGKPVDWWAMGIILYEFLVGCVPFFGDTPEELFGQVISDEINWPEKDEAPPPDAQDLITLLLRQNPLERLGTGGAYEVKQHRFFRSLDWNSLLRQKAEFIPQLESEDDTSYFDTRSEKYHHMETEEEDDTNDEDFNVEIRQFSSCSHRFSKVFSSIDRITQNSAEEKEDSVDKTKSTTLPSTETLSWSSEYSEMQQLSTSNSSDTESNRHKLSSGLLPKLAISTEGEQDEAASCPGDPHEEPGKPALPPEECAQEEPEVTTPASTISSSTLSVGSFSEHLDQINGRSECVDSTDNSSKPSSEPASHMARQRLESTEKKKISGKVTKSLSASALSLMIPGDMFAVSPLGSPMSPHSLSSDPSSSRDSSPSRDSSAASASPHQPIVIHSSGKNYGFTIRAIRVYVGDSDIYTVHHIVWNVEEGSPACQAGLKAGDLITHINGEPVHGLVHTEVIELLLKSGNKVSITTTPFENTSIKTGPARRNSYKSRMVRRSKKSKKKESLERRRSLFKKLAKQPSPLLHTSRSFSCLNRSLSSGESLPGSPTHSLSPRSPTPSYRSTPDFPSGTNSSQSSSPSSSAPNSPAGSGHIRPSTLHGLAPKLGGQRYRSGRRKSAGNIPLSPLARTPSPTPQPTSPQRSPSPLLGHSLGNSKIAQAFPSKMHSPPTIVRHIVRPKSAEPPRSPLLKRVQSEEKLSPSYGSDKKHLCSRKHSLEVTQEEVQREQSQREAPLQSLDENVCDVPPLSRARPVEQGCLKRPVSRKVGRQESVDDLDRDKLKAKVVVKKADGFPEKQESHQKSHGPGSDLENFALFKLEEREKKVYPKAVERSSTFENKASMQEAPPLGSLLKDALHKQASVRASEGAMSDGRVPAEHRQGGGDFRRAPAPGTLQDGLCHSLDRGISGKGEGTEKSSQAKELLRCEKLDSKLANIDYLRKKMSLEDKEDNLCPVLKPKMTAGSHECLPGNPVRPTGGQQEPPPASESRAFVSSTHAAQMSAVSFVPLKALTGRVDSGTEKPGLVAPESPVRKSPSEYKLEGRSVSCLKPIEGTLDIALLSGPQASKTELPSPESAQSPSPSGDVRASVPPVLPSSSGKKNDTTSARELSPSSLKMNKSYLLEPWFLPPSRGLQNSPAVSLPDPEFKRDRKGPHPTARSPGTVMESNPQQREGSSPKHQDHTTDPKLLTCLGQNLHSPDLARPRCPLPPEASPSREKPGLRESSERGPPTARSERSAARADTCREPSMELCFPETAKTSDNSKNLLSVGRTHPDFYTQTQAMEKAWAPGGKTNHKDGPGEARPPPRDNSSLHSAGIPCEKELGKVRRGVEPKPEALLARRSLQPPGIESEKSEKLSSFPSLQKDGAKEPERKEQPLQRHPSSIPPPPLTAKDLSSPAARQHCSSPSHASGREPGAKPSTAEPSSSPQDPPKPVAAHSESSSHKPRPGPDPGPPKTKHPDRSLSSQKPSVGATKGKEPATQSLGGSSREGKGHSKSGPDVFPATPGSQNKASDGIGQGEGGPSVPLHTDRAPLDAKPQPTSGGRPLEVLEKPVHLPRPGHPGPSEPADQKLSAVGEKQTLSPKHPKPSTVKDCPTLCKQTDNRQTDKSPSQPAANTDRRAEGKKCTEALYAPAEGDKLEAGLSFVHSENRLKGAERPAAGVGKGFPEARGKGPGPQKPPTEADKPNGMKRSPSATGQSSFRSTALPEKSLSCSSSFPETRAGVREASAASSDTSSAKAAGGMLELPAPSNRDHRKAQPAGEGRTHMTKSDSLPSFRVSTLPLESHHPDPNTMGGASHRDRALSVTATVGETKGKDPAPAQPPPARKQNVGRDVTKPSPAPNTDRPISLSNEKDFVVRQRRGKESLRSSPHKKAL
T4 sequence (P78352 whole entry, the tested form may be a part): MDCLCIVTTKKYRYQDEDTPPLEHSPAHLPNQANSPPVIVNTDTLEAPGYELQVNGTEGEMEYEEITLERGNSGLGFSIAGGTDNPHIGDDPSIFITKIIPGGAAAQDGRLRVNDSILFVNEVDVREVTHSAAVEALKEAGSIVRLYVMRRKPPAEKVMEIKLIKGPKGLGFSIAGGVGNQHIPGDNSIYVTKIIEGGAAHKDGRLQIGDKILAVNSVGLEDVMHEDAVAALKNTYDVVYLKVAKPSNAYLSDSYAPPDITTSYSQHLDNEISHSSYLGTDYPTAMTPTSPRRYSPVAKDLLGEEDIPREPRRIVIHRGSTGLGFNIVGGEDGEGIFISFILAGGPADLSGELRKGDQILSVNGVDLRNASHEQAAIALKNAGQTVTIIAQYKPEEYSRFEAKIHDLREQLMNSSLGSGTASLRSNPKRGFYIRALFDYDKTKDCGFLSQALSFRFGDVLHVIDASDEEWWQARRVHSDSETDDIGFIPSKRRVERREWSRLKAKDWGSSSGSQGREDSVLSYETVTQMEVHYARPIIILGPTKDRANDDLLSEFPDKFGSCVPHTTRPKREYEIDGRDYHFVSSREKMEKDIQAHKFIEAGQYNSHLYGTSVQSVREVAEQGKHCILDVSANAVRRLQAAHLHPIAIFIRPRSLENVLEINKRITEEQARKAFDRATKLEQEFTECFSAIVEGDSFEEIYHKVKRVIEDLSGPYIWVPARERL
T8 sequence (P78352 58-398 limits assumed): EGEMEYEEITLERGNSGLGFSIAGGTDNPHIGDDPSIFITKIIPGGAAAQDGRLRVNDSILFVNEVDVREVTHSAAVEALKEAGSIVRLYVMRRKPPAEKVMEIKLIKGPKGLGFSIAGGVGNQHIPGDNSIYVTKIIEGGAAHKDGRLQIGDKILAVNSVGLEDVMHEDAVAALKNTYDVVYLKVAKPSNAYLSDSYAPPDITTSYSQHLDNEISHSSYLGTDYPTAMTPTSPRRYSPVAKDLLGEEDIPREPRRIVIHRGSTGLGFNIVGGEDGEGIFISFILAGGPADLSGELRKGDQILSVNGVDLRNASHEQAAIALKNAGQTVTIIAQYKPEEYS
T9 sequence (Q12959 213-413 limits assumed): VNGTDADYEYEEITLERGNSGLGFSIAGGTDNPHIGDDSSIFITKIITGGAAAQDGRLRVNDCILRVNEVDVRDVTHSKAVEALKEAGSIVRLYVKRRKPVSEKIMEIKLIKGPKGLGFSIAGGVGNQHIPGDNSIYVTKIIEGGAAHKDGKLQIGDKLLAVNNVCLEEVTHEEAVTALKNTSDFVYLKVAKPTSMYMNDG

Molecule: GYGRKKRRQRRRGSISSSAEV [Tat-CLASP1 fusion peptide]
T cell activation mediated by monoclonal anti-CD3 (IFNγ production) [1]: did not inhibit T cell activation

Molecule: CC(CN(C)C)CN1c2ccccc2CCc2ccccc21 (centres unmarked) [Trinipramine, TRIMIPRAMINE MALEATE]
Change in OD: absorbance at 450 nm in presence of drug [2]: 1.1 to 2.2

Classification [4]: 4 (A450 nm 3-4)
Classification [5]: 5 (A450 nm of 4 more than 2× repeated)
Classification [6]: 4 (A450 nm 3-4)
Classification [7]: 5 (A450 nm of 4 more than 2× repeated)
Molecule: A2AB_HUMAN (modified) (Biotin-QDFRRAFRRILARPWTQTAW; not fully specified)
Classification ([3]; PDZ BAI-1, PDZ Domain 2): 4 (A450 nm 3-4)
Classification ([3]; PDZ BAI-1, PDZ Domain 4): 5 (A450 nm of 4 more than 2× repeated)

Molecule: GYGRKKRRQRRRGMTSSSSVV
T cell activation mediated by monoclonal anti-CD3 (IFNγ production) [1]: inhibited T cell activation

Classification [8]: 1 (A450 nm 0-1)
Classification [9]: 1 (A450 nm 0-1)
Classification [10]: 2 (A450 nm 1-2)
Classification [11]: 1 (A450 nm 0-1)
Classification [12]: 1 (A450 nm 0-1)
Molecule: HPTDITGLPNLSDPSVSTVV (Biotin-HPTDITGLPNLSDPSVSTVV) [NMDA R2C]
